Measurements as given in patent US20090041768A1 (published 2009).

Biological target: FcRn
Experiment: Biacore FcRn binding

FcRn, sequence (chain, as listed by the source, chain 1 of 2): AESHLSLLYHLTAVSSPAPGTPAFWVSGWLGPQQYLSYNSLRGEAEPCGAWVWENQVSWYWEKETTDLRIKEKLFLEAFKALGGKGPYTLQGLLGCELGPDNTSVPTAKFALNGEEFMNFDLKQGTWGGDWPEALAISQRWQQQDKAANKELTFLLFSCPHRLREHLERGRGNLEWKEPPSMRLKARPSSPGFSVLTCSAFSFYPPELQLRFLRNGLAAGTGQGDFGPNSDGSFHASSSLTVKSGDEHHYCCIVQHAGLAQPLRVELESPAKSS
FcRn, sequence (chain, as listed by the source, chain 2 of 2): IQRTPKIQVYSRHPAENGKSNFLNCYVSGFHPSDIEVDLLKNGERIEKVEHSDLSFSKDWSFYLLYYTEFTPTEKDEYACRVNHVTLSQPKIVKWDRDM

B1: Fc-loop TN8-19-07 (clone #6951) (Fc fusion)
chain: MDKTHTCPPCPAPELLGGPSVFLFPPKPKDTLMISRTPEVTCVVVDVSHEDPEVKFNWYVDGVEVHNAKTKPREEQYNSTYRVVSVLTVLHQDWLNGKEYKCKVSNKALPAPIEKTISKAKGQPREPQVYTLPPSRDELGGLADHGQCIRWPWMCPPEGWEGGTKNQVSLTCLVKGFYPSDIAVEWESNGQPENNYKTTPPVLDSDGSFFLYSKLTVDKSRWQQGNVFSCSVMHEALHNHYTQKSLSLSPGK
notes: also called Fc-loop-myo7; myostatin loop peptibody
EC50: ~680 nM
